1 molecule from publication PMC3393791 can be followed below.

The experiment concerns the target T1, Full-length human TIP47/perilipin-3 (human), O60664.
T1 chain: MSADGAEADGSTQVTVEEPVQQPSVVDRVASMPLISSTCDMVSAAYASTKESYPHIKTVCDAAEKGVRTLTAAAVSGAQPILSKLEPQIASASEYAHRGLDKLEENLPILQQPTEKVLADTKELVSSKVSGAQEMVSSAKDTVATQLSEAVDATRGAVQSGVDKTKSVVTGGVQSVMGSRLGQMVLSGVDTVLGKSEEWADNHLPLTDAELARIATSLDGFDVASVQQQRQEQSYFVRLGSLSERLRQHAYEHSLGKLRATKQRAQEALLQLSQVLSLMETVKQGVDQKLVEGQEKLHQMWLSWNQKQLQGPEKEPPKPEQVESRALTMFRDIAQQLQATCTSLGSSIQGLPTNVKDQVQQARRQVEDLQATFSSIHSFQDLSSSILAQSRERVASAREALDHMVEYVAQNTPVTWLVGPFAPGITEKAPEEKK
The experiment in a line: SEC-MALS. To be noted: remark: other sources report otherwise.

B1: Full-length human TIP47/perilipin-3, O60664 1-434 (natural protein)
chain: MSADGAEADGSTQVTVEEPVQQPSVVDRVASMPLISSTCDMVSAAYASTKESYPHIKTVCDAAEKGVRTLTAAAVSGAQPILSKLEPQIASASEYAHRGLDKLEENLPILQQPTEKVLADTKELVSSKVSGAQEMVSSAKDTVATQLSEAVDATRGAVQSGVDKTKSVVTGGVQSVMGSRLGQMVLSGVDTVLGKSEEWADNHLPLTDAELARIATSLDGFDVASVQQQRQEQSYFVRLGSLSERLRQHAYEHSLGKLRATKQRAQEALLQLSQVLSLMETVKQGVDQKLVEGQEKLHQMWLSWNQKQLQGPEKEPPKPEQVESRALTMFRDIAQQLQATCTSLGSSIQGLPTNVKDQVQQARRQVEDLQATFSSIHSFQDLSSSILAQSRERVASAREALDHMVEYVAQNTPVTWLVGPFAPGITEKAPEEKK
As for B1, the stoichiometry N came out at 2.

Usually stoichiometry N stands for a count of units in the complex or per binding partner.
